Test results taken from article PMC5728393 (Nucleic Acids Research, 2017).

Tests used:
[1] = target: T1, PadR (Bacillus spizizenii, UniProt E0TW95); assay: X-ray crystal structure of the complex; type: binding; conditions: 10 mM ferulic acid soak, 22% PEG 3350, 0.1 M sodium acetate pH 4.0; interdomain pocket
T1 sequence (E0TW95 1-182): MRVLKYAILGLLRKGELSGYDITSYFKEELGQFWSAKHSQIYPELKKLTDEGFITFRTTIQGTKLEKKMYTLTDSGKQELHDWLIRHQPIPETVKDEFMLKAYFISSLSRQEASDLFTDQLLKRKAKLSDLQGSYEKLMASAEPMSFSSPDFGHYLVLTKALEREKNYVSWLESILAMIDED

[2] = target: T1, PadR; assay: isothermal titration calorimetry; type: binding
[3] = target: T2, PadR WT (Bacillus subtilis, UniProt E0TW95 1-182); assay: fluorescence polarization
T2 sequence: T1 sequence (E0TW95 1-182)

[4] = target: the molecule itself; assay: SEC

With `COc1cc(/C=C/C(=O)O)ccc1O` [ferulic acid] as the molecule, how does the “X-ray crystal structure of the complex (soaked crystals)” value [1] read?
The value was “we also determined a PadR structure in complex with ferulic acid (PadR3FA)”.

Which Kd [2] does the source give for `O=C(O)/C=C/c1ccc(O)cc1` [p-coumaric acid] here?
Its Kd is 6200 ± 100 nM.

B1: operator T10A/T10'A (dsDNA)
DNA 1: CGGAACATGAAAATAGTTTCATGATTAC
DNA 2: GTAATCATGAAACTATTTTCATGTTCCG
B1 was tested. Which Kd [3] did it give?
Its Kd is 11.6 ± 1.3 nM.

B2: operator C6T/C6'T (dsDNA)
DNA 1: CGGAATATGTAAATAGTTACATAATTAC
DNA 2: GTAATTATGTAACTATTTACATATTCCG
How did the Kd [3] turn out when B2 was run?
The Kd was 160 ± 6.9 nM.

B3: operator T18G/T18'G (dsDNA)
DNA 1: CGGAACATGTCAATAGTGACATGATTAC
DNA 2: GTAATCATGTCACTATTGACATGTTCCG
How did the Kd [3] turn out when B3 was run?
Its Kd is 9.9 ± 1.7 nM.

B4: operator C6G/C6'G (dsDNA)
DNA 1: CGGAAGATGTAAATAGTTACATCATTAC
DNA 2: GTAATGATGTAACTATTTACATCTTCCG
With B4 as the molecule, how does the Kd [3] read?
The Kd was 200 ± 21.7 nM.

B5: phenolic acid decarboxylase regulator (PadR) from Bacillus subtilis, wild type (natural protein, UniProt E0TW95 1-182, looked up)
chain: T1 sequence (E0TW95 1-182)
With B5 as the molecule, how does the “stoichiometry N” value [4] read?
Its value is 2.

B6: operator T8A/T8'A (dsDNA)
DNA 1: CGGAACAAGTAAATAGTTACTTGATTAC
DNA 2: GTAATCAAGTAACTATTTACTTGTTCCG
How did the Kd [3] turn out when B6 was run?
Its Kd is 41 ± 4 nM.

B7: operator T17A/T17'A (dsDNA)
DNA 1: CGGAACATGTATATAGATACATGATTAC
DNA 2: GTAATCATGTATCTATATACATGTTCCG
Which Kd [3] does the source give for B7 here?
The Kd was 9.4 ± 1.4 nM.

B8: operator T18C/T18'C (dsDNA)
DNA 1: CGGAACATGTGAATAGTCACATGATTAC
DNA 2: GTAATCATGTGACTATTCACATGTTCCG
For B8, which Kd [3] is on record?
Its Kd is 20.8 ± 1.9 nM.

B9: operator C6A/C6'A (dsDNA)
DNA 1: CGGAAAATGTAAATAGTTACATTATTAC
DNA 2: GTAATAATGTAACTATTTACATTTTCCG
B9 was tested. Which Kd [3] did it give?
Its Kd is 312 ± 45.5 nM.

B10: operator G9A/G9'A (dsDNA)
DNA 1: CGGAACATATAAATAGTTATATGATTAC
DNA 2: GTAATCATATAACTATTTATATGTTCCG
How did the Kd [3] turn out when B10 was run?
Its Kd is 15.7 ± 2.9 nM.

B11: bridge operator (dsDNA)
DNA 1: AGTTACATGATTACCGGAACATGTAAAT
DNA 2: ATTTACATGTTCCGGTAATCATGTAACT
B11 was tested. Which Kd [3] did it give?
Its Kd is 8.9 ± 2.1 nM.

B12: operator G9T/G9'T (dsDNA)
DNA 1: CGGAACATTTAAATAGTTAAATGATTAC
DNA 2: GTAATCATTTAACTATTTAAATGTTCCG
For B12, which Kd [3] is on record?
Its Kd is 37.8 ± 6.7 nM.
